Several values for one entry are separate records, joined by “and”; a condition that tells them apart may be missing. Equal entries are not always repeated.
Biological target: N-heptad repeat of HIV-1's gp41 (HIV-1 strain IIIB) (HIV-1 strain IIIB), P04578
Assay: cell-based or functional assay

Chain of N-heptad repeat of HIV-1's gp41 (HIV-1 strain IIIB) (HIV-1 strain IIIB), P04578 (P04578 540-590 limits assumed): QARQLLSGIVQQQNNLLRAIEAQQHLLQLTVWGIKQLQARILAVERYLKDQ

Row | Binder | RT Results (cpm) (Day 7), HIV-1 IIIB in CBMC, drug at 0 nM (no-drug baseline) | RT Results (cpm) (Day 7), HIV-1 IIIB in CBMC, drug at 125 nM | RT Results (cpm) (Day 7), HIV-1 IIIB in CBMC, drug at 600 nM | RT Results (cpm) (Day 7), HIV-1 IIIB in CBMC, drug at 3000 nM
1 | WMEWDREINNYTSLIHSLIEESQNQQERNEQELL (modifications not checked) [CJC-1646 (SEQ ID NO:93), native (unreactive) C34] | 49000 cpm and 46300 cpm and 47400 cpm | 5850 cpm and 5040 cpm and 5220 cpm | 4920 cpm and 5850 cpm and 5090 cpm | 5810 cpm and 6960 cpm and 5970 cpm
2 | WMEWKREINNYTSLIHSLIEESQNQQERNEQELL (modifications not checked) [CJC-1655 (SEQ ID NO:32), C34 with linker-R1-R2-M inserted at position Asp5] | 71900 cpm and 54100 cpm and 51000 cpm | 6320 cpm and 6930 cpm and 5910 cpm | 6480 cpm and 11900 cpm and 6030 cpm | 7970 cpm and 5900 cpm and 6210 cpm

— patent publication US20080039532A1, “Compounds For Specific Viral Target” (priority 2004, published 2008)
